Reference: paper PMC8482623 (Nature structural & molecular biology, 2020)

Biological target: the molecule itself
Test: crystal structure

B1: truncated mouse Bcs1 lacking the TM and Bcs1-specific domains (ΔNmBcs1, residues 151-418) (domain or fragment)
chain: not shown
  stoichiometry N: 7
